In US9850300B2, “Compositions and methods relating to inhibiting cancer cell growth and/or proliferation” (The Regents of the University of Michigan, priority 2013, dated 2017):
“Also recorded” adds a separate entry of the source.

What was measured:
[1] = tested on: primary ALDH+ and ALDH(−) cells; assay: Single cell microfluidic culture, cell division type; format: cell-based, human
From the text: For primary cells, it was observed that over 50% of untreated ALDH^(−) cells underwent no division over 5 days, while remaining cells underwent symmetric division. […] 20% of ALDH^+ cells underwent no division. EGFL6 treatment of primary ALDH^+ cells was associated with a 1.9-fold increase in the number of ALDH^+ cells undergoing asymmetric division (FIG. 3Dii). EGFL6 treatment was associated with an increase in total cell numbers (90 EGFL6 treated cells yielded 585 total cells while 82 mock-treated cells yielded 451 cells).
Informed consent was obtained from all patients before tissue procurement. All studies were performed with the approval of the Institutional Review Board of the University of Michigan. All tumors were stage III or IV epithelial ovarian or primary peritoneal cancer. Tumors were mechanically dissected into single-cell suspensions and isolated on a ficoll gradient as previously described (see, e.g., Pulaski, H. L., et al. J Transl Med 7, 49 (2009)). For ascites, cell pellets were collected by centrifugation; red cells were lysed using ACK buffer (Lonza, Hopkinton, Mass.), washed, passed through a 40-μm filter, then passed 4 times through a Standard Hub Pipetting needle to isolate single cells (see, e.g., Silva, I. A., et al. Cancer Res (2011)).

[2] = tested on: ALDH+ and ALDH(−) SKOV3 cells; assay: as above; format: cell-based
Description: To determine if EGFL6 is promoting asymmetric division, a novel microfluidic culture device was used which allows the isolation, confirmation, and culture of individual cells. ALDH^+ and ALDH^(−) SKOV3 cells were FACS-sorted into separate microfluidic devices (see, e.g., Chung, J., Kim, Y. J. & Yoon, E. Appl Phys Lett 98, 123701 (2011)), and confirmed ALDH expression with fluorescent microscopy (FIG. 3Di). Cells were then mock-treated or treated with EGFL6. After 48 hours, live cells were stained using ALDEFLUOR and re-imaged using fluorescent microscopy (FIG. 3Dii, right panels). Cell divisions, type of daughter cell (ALDH^(−) or ALDH^+), and total cell number were assessed. […] Production of ALDH^+ daughter cells from ALDH^(−) cells was not observed. […] This was associated with a statistically significant increase in total cell numbers; 6.5 versus 3.7 average cells/well and total 325 vs. 185 total cells/50 captured cells in EGFL6 treated and control ALDH^(+) cells respectively.

[3] = tested on: ALDH+ CSCs in SKOV3 cells; assay: ALDH+ cell percentage and number (ALDEFLUOR FACS); format: cell-based
From the text: It has been shown that aldehyde dehydrogenase enzymatic activity (ALDH) is an excellent marker of ovarian CSCs in SKOV3 cells and primary patient samples (see, e.g., Silva, I. A., et al. Cancer Res (2011); Landen, C. N., Jr., et al. Mol Cancer Ther 9, 3186-3199 (2010); Steg, A. D., et al. Clin Cancer Res 18, 869-881 (2012); Kryczek, I., et al. Int J Cancer 130, 29-39 (2012); Deng, S., et al. PLoS ONE 5, e10277 (2010)). The impact of EGFL6 treatment on the percentage of ALDH^+ CSCs in vitro was next assessed. […] However, given the increase in total cell numbers, the absolute ALDH^+ CSC number remained unchanged (FIG. 3Aiii). […] Human ovarian cancer ascites cells were also treated with EGFL6 in a tumor sphere assay. Once again, treatment with EGLF6 was associated with a reduction in ALDH^+ cell percentages in tumor spheres (FIG. 3B).
SKOV3, A2008, and A2780 were maintained in RPMI-1640, supplemented with 10% FBS with 1% Penicillin/Streptomycin, and cultured in humidified atmosphere of 5% CO2 at 37° C. For all in vitro cell culture experiments, isolated cells were allow to recover overnight following FACS, prior to treatment. Infantile Hemangioma Stem cells were maintained in EBM-2 medium with growth factor supplement cocktails in culture plates coated with fibronectin. For Echistatin and EGFL6 treatment, cells were pretreated with Echistatin (Sigma, 100 nM) for 24 hours prior to EGFL6 treatment. All transfections were performed using FuGene6 reagent (Promega) per company protocol.
FACS assay was performed as previously described (see, e.g., Silva, I. A., et al. Cancer Res (2011)). Briefly, SKOV3 cells or primary ovarian tumor/ascetics cells were stained for ALDH using ALDEFLUOR kit per company protocol (Stem Cell Technologies). DAPI staining was used to exclude non-viable cells. For FACS cell sorting, equal number of ALDH and ALDH^(−) cells were collected for subsequent experiments.
EGFL6 monoclonal antibody producing hybridoma cells were maintained in RPMI medium supplemented with 10% FBS. For antibody purification, the cells were cultured in reduced FBS (5%). […]

[4] = ALDH+ SKOV3 cells, EGFL6 treated

B1: EGFL6: recombinant EGFL6-flag protein from transfected HEK293 cells, used purified or as 72 hr supernatant (protein)
chain: NAASARHHGLLASARQPGVCHYGTKLACCYGWRRNSKGVCEATCEPGCKFGECVGPNKCRCFPGYTGKTCSQDVNECGMKPRPCQHRCVNTHGSYKCFCLSGHMLMPDATCVNSRTCAMINCQYSCEDTEEGPQCLCPSSGLRLAPNGRDCLDIDECASGKVICPYNRRCVNTFGSYYCKCHIGFELQYISGRYDCIDINECTMDSHTCSHHANCFNTQGSFKCKCKQGYKGNGLRCSAIPENSVKEVLRAPGTIKDRIKKLLAHKNSMKKKAKIKNVTPEPTRTPTPKVNLQPFNYEEIVSRGGNSHGGKKGNEEKMKEGLEDEKREEKALKNDIEERSLRGDVFFPKVNEAGEFGLILVQRKALTSKLEHKDLNISVDCSFNHGICDWKQDREDDFDWNPADRDNAIGFYMAVPALAGHKKDIGRLKLLLPDLQPQSNFCLLFDYRLAGDKVGKLRVFVKNSNNALAWEKTTSEDEKWKTGKIQLYQGTDATKSIIFEAERGKGKTGEIAVDGVLLVSGLCPDSLLSVDD
**Q.** With B1 as the molecule, how does the total cells yielded ([1]; from 90 EGFL6 treated primary cells) read?
**A.** 585 total cells

**Q.** What about the “symmetric divisions of ALDH(−) cells” value ([1]; primary ALDH(−) cells, 5 days) of the same molecule?
**A.** non-statistically significant increase

**Q.** And the “increase in the number of ALDH+ cells undergoing asymmetric division” value ([1]; primary ALDH+ cells)?
**A.** 1.9 fold

**Q.** What about the “number or type of cell divisions of ALDH(−) cells” value ([2]; ALDH(−) SKOV3 cells, 48 hours) of the same molecule?
**A.** no significant impact

**Q.** And the “increase in the percentage of ALDH+ cells undergoing asymmetric division” value ([2]; ALDH+ SKOV3 cells, 48 hours, vs mock-treated)?
**A.** 2 fold

**Q.** And the average cells/well [2, 4]?
**A.** 6.5 cells/well

**Q.** And the “total cells/50 captured cells” value [2, 4]?
**A.** 325 total cells/50 captured cells

**Q.** And the “percentages of ALDH+ CSCs” value ([3]; EGFL6 treatment)?
**A.** decreasing percentages; also recorded: reduced

**Q.** And the “absolute ALDH+ CSC number” value ([3]; increasing concentrations of EGFL6)?
**A.** unchanged
